The values that follow come from the DeepSol protein solubility set.

The data set can be described thus: soluble on expression in E. coli; label from the status in PepcDB or PDB records.
In the case of “MQQQETFRHILSVLVQDVDGIISRVSAMFTRRSFSLVSFVSGKTEMHGINRITIVVDASTQDIEQITKQLNKLIPVLKVVRLDEDVTVARALMLVKVSADASNRPQVVDAAKIFRAHVVDVAPDSVVIEATGNKGKLRALLDVLEPFGIRELISSGQIALNRGSKTMAPQSSRS”, the “soluble on expression in E. coli” value was “not soluble”.

Consider “MSLSVEQANLILNHLPMEITFVNKEDIFQYYNDNTPADEMIFKRTPSQVGRNVELCHPPKYLDKVKTIMKGLREGSKDKYEMWFKSESRGKFVHITYAAVHDEDGEFQGVLEYVQDIQPYREIDTDYFRGLEEGHHHHHH”, for which the “soluble on expression in E. coli” value was “soluble”.

As for “MGLSPHVEALQVLQTALQTGEGFIKVTGEVGTGKTLICRKLINELPQGFHCAYLPNPYLTPAELRWAVANELGLKYTSEIDQQQLTGLIQQQLLALSTHGHAIVLVLDEAQALPDESLEALRLFTNLETESRKLLQVVLFGQPELDERLKRQAFRQLRQRITFSYNLRPLEHHHHHH”, the “soluble on expression in E. coli” value is “not soluble”.

Take “KRELTVLDLHPGAGKTRRVLPQLVREAVKKRLRTVILAPTRVVASEMYEALRGEPIRYMTPAVQSERTGNEIVDFMCHSTFTMKLLQGVRVPNYNLYIMDEAHFLDPASVAARGYIETRVSMGDAGAIFMTATPPGTTEAFPPSNSPIIDEETRIPDKAWNSGYEWITEFDGRTVWFVHSIKQGAEIGTCLQKAGKKVLYLNRKTFESEYPKCKSEKWDFVITTDISEMGANFKADRVIDPRKTIKPILLDGRVSMQGPIAITPASAAQRRGRIGRNPEKLGDIYAYSGNVSSDNEGHVSWTEARMLLDNVHVQGGVVAQLYTPEREKTEAYEGEFKLKTNQRKVFSELIRTGDLPVWLAFQVASANVEYHDRKWCFDGPNEHLLLENNQEIEVWTRQGQRRVLKPRWLDGRITSDHLNLKSFKEFASGKR”: the “soluble on expression in E. coli” value was “soluble”.

For “MWIIEAEGDILKGKSRILFPGTYIVGRNVSDDSSHIQVISKSISKRHARFTILTPSEKDYFTGGPCEFEVKDLDTKFGTKVNEKVVGQNGDSYKEKDLKIQLGKCPFTINAYWRSMCIQFDNPEMLSQWASNLNLLGIPTGLRDSDATTHFVMNRQAGSSITVGTMYAFLKKTVIIDDSYLQYLSTVKESVIEDASLMPDALECFKNIIKNNDQFPSSPEDCINSLEGFSCAMLNTSSESHHLLELLGLRISTFMSLGDIDKELISKTDFVVLNNAVYDSEKISFPEGIFCLTIEQLWKIIIERNSRELISKEIERLKYATASNSTPQKIAAALEHHHHHH”, the “soluble on expression in E. coli” value is “soluble”.

For “MGSDKIHHHHHHMSNAEWLNALETPFLLIDEFRFQRNIDRLYQRTKNLGSQVRPHLKTLRSIEAGRYLLKDSASPATVSTLAEAEAFAGAGYTNLLYAVGIAPHKLPRIANLIHKGVNLHILLDSVEQARAVTDYALANNVTFSVFIEIDCDGHRGGIPPESDALLELAQQIDGNGATLTGLLAHAGESYACRTDEAIRAAARAECAAINIAGRRVRALGIACPVLSVGATPTAHFAEDLTGITEVRAGVFTTFDLVMKNVGVCSLDDIALSVVSTVIGHNREKGWVFIDAGWMALSRDRGTASQAKDYGYGLVCDLHGSPYHDLCVTVTNQEHGIIALPTDSGFSVDNFPVGTRLRILPNHACATAAMHQHYQVLKSHRHEQETWQRITGW”, the “soluble on expression in E. coli” value was “not soluble”.

For “MSLKKQLVKTDGHNQLDQPNTKALQLKKKQFNSGVRVTSEISFLREVIAHHPGIETERVIDNQTFGSAMYLERAQKEHQLFIKILRQHGTKVHYLQDLLLEALSAADPNVRQDFIKNFLLESGIKSVSTFEACLNFFRSLDSLVDVIKVMFGGIKVSDVPPITPQRFADIHVSNSPFLIKPLSFSLYPHKFFNTLGTGVALFVTNDSELKRHSLVYEYIMRFHPRFDGVKLYTNRDFKNCLINSSDIIQISNEILLIGISHDTDVLGIESLARNLLSDHTNPIKQIIAINIHKFGAKTNLNKLIAMVDVDKFIIARKVLQATEIFELTATAQRDVDGLAQIKFKPLKFNFGEIIEAIIDKQPRFVIIGGGDEVAERKELLDCGMGVLNLSPGEIVVFDRNHYTNNLLNELGLIIHKIPASELSRGPSGPLEMVCSLWREEGHHHHHH”, the “soluble on expression in E. coli” value is “soluble”.

For “MAHHHHHHMGCTASKTKTPAANVASKGADEFYALATTERHPVAEKLLEEWVLFVDAQARRNAGDSSAARAYETRLKEVWADTTNRPVTHRSVDYVGKMFLEYIKEDLSHRGWGGNFDYKVAGVVTQGFLKANANIDTALSDTPEEVTWEIKIHYDSLGVS”, the “soluble on expression in E. coli” value is “soluble”.

For the sequence “MERRLGVRAWVKENRGSFQPPVCNKLMHQEQLKVMFVGGPNTRKDYHIEEGEEVFYQLEGDMVLRVLEQGKHRDVVIRQGEIFLLPARVPHSPQRFANTVGLVVERRRLETELDGLRYYVGDTMDVLFEKWFYCKDLGTQLAPIIQEFFSSEQYRTGKPIPDQLLKEPPFPLSTRSIMEPMSLDAWLDSHHRELQAGTPLSLFGDTYETQVIAYGQGSSEGLRQNVDVWLWQLEGSSVVTMGGRRLSLAPDDSLLVLAGTSYAWERTQGSVALSVTQDPACKKPLGLEHHHHHH”, the “soluble on expression in E. coli” value was “not soluble”.

Take “MYEGLLIDIDYLLNVVKELKINFDKKIKTLNLLIERNIPIVLYTENNKEYVDTIMKYLKIKEPAIIVEGAQIYSPFDLSYEAVFPLSINTVCKLGNWAMDRKMDMSISTDKKVIDYSEWLKELRQVNYKNAGDKLPSAVKVDICMKNDDKRIELLNFIGKNNLECYAHMYLNHVACINSIVDKGNTLKYLANKKKWDIKKFAMIGDYSKDTSIFDEVGFLMSISDFTKDFEKNFDKTLKSDMMSIV”: the “soluble on expression in E. coli” value was “soluble”.

In the case of “MTPPIAADYTAQAVSTDTIGYLHSTESGAGVDGPGMRFVFFVSGCQFRCLYCHNPDTWKLHNGRQVSVEQALSEVAPYARFLKFAGGVTISGGEPLMQHEFVGELFHEIKQRFGLHTALDTQGFLHERVSDAWFDDVDLVMLDIKHSDPEKYQALTGQPLQPTLDFALRLKRLRKKMWIRYVLVPGLTDGDADIEKLADFAASLGDVVERVEVLPFHQLGKDKWAQLGMEYQLNDTPIPTAEQAAHARALFASRGLKVTLEHHHHHH”, the “soluble on expression in E. coli” value was “soluble”.

Turning to “MAHHHHHHMWLNDFFAMELDGRAAMDANWGVLLAAFFRGPKKYIRDAGVLGEMQASDRYKMMERAVRDEMDMEEDVSRLYNNGMYELLRWLVATAEVTASAHEVTKSFLDAAAEEARNPTTTSAPRYLEGCYESVYNARWNHVVEVPGGEGTGLEVREGEPPQSWTYRAVGRTLEKDDGVQQFGATRPVLMVLTSDKGWPYSRNTIQDLPKDVFVNCEVDRVWQIVKGDLTAWFSTDGGTDFRPERRVLIGTPGIGKLVAAGSYLLYQLLHYDLEKIQVVVHCFGGGDAYVSDKTTRAATRYGDEDMCISELRSLRGHGRNVYIIYDVAKEGTPPPRHFAPTSGWGMIAVSFPKVTNYDEWAKQLQAARIIVNCPD”, the “soluble on expression in E. coli” value was “not soluble”.

“GMAEQMRRVARLFGDWPETIIWTCLEGTMGDIYVDDSQSPQSALALYGRQSFFGFLAGQPHRDLLKICEGKNIILVPQNQAWSDLIEEVYGDGVRFFTRYATKKDTEFDLGHLQKLVDDLPESFDMKLIDRNLYETCLVEEWSRDLVGNYIDVEQFLDLGLGCVILHKGQVVSGASSYASYSAGIEIEVDTREDYRGLGLAKACAAQLILACLDRGLYPSWDAHTLTSLKLAEKLGYELDKAYQAYEWR”: the “soluble on expression in E. coli” value is “soluble”.

With “MSLALYLGNKRMNDMYYTIGQVAKMQHLTISQIRYYDKQGLFPFLQRNEKGDRIFNEEALKYLEMILCLKNTGMPIQKIKQFIDWSMEGDSTILHRLKLMKQQEANVLQLIQDTEKNLKKIQQKIAKYEDEISSANATTKEGHHHHHH”, the “soluble on expression in E. coli” value is “soluble”.

Regarding “GPGSMSHVKAFDPAAQARCDPYYKRNHMGHVVCTLCDVCCSDDNNFIKHLAGKTHSLQLERLERSANREKRLAEEEELNKEAMRRAEQEKATRELLLQQTSAPHASSVTSFAPFGRPEFHYCTEHDPELYQTKVWLEFYFPQAVEGARPLHRWRSAREQEVEKPPNDDVVYLLVACEGYMTVGLKFPSKLPRTSSGLTSWGGYGNAGSDEEKGRYRCSWDPVKKLYELFFIIG”, the “soluble on expression in E. coli” value is listed as “soluble”.

In the case of “ASNIHRIQQIVEAAERYNRKVAVSGRSMENIVAVAIELGYLKVKEGVLIGIDAINRYADNKIVIITTGSQGEPMSALTRMAAQEHKKVKIQEGDMVVISANPIPGNEKLVSRVINQLFKKGAEVIYEALADVHVSGHACQEELKLMHTLIKPRFFIPVHGEYRHLKQHKELATNLGMPKANVVIPEIGGVIELTRSSIKKTDTVVAGKVFVDGLGVGDVGNIVLRDRKHLSQDGIVTVVVTIEKVSGTVIAGPDIISRGFVYVRESEDLMEESKEIVKTALLECEEKHITEWATIKSNIKDVLRIFLYERTKRKPMILPIIME”, the “soluble on expression in E. coli” value was “not soluble”.

“APEWTEEDLSQLTRSMVKFPGGTPGRWEKIAHELGRSVTDVTTKAKQLKDSVTCSPGMV”: the “soluble on expression in E. coli” value is recorded as “soluble”.

Take “MGSDKIHHHHHHMVEQLKPRYSSVWINKIAEVPQDAWDALALPLKTPFLEWDWLNNLETSHSATAKTGWLPNHLTLWRDRTLIAVAPLYIKGHSYGEFVFDHQWAELAERIGVQYYPKLLGMTPFTPAEGYRFLIADGEDEEEITAMMVHEIDSFCVKHNISSCHFLYVDPQWQPVLEKQGFTAWLHHSFIWENSGFQNFDDYLTVFNANQRRNIKRERKAVEKAGLQLQAVTGDAIPKSLFPLMYQFYADTCDKFGWWGSKYLTKQFFEQLHHNYRHRVVFFPAYHEQDPRQPLGMSFCLFKDDRLYGRYWGSFQEIDCLHFDACYYAPIEWAIANGIQSFDPGAGGRHKKRRGFPAAPNYSLHRFYNSRLGQILRPYINEVNQLEEQEIAAINAELPFSQK”: the “soluble on expression in E. coli” value is given as “not soluble”.

With “MVFCGDDVATGVRDAITYCYRCKGRKVTLSDHEADDDNKPIGDFDYDHEVVVFEIRSRAMEKLRKKRRTGMEGLTYKFVKEYDIENEFCSVRSSFSECCMSDISIEGYMTAKTEFSRSSSLKGLELENQWKMHYVNEIKKGSVIQEFCHCQGWPFGLGRKAALLPPLPKSPAESWSWRKPTRVTPVPFV”, the “soluble on expression in E. coli” value was “soluble”.

With “MTDRLIIQGGKKLSGTLQVDGAKNSAVALIPAAILAESEVVLEGLPDISDVYTLYDILEELGGSVRYDNKTAIIDPTDMLSMPLPSGNVKKLRASYYLMGAMLGRFKKAVIGLPGGCYLGPRPIDQHIKGFEALGAKVTNEQGAIYLRADELKGARIYLDVVSVGATINIMLAAVRAKGKTVIENAAKEPEIIDVATLLTNMGAIIKGAGTDTIRITGVDHLHGCHHTIIPDRIEAGTFMVLAAASGKGIRIENVIPTHLEGIIAKLTEMGVPMDIEEDSIFIGEVENIKKVDIKTYAYPGFPTDLQQPLTALLTRAEGSSVITDTIYPSRFKHIAELERMGGKFKLEGRSAVISGPAKLQGSKVTATDLRAGAALVIAGLLAEGRTEIHGVEHIERGYSKIIEKLSAIGADITRSSTAETNI”, the “soluble on expression in E. coli” value is reported as “not soluble”.

Take “MASTPCAACKLLRRKCTQECVFAPYFPPTNPQKFIFVHRVFGASNVTKILNDLPPDQREDTVNSLFYEAEARIRDPIYGCVGLISFLQQYLKKIQQDLLTAKEELVGYLGPDAVIPPPYLPPIGNNPPPNFMMSMEGMPPGVIPQGEPLMIREPNMSQQHHHQQPQDEQLQFIASDAQRMAAMMLERGDQQGMFNGYGIDNNGSVTATGFNQMDVNDQGAGGSLSGPSLALGSFGDAYQMGQETEHGHINHDQLQTQLMLQPPLQEGQEQTEEGQFLMQPMGQENLHDEEEEEELEPPVKWRMSENKEASF”: the “soluble on expression in E. coli” value is “not soluble”.
